Results on 2 molecules are retold here after article PMC2954905, “Controlling Cellular P-TEFb Activity by the HIV-1 Transcriptional Transactivator Tat”.

The target in the data set is HEXIM1 (UniProt O94992 1-359). Kind of data set: EMSA; EMSA: 50 mM Tris-HCl pH 8.0, 100 mM NaCl, 14.4 mM 2-mercaptoethanol, 20 ng/ul E. coli tRNA, RT; ~2 fmol RNA; 4-5% native PAGE in 0.5x TBE, 2.5% glycerol. To be noted: protein: recombinant, hairpin.
HEXIM1, sequence (O94992 whole entry): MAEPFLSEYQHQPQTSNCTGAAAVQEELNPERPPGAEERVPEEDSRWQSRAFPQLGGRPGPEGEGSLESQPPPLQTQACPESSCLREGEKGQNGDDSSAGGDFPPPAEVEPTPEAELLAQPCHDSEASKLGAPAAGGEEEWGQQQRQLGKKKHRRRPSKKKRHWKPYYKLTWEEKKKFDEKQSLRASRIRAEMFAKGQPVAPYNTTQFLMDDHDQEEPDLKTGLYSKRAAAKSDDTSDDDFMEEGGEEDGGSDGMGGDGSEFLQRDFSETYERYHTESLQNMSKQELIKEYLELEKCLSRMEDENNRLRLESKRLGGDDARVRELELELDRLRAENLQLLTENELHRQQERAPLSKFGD

B1: DHBS (structured_RNA)
RNA: GGGCCACUGACCCCAUUGAUCGGAAGAUCUGGCUGGCUACAGUGGAUC
Regarding B1, for the setting “label: 32P, GGAA tetraloop”, the binding result is “binds”.

B2: 5'HPdm+pm (in vitro) (structured_RNA)
RNA: GGAUGUGAGGGCCUAGACCGACCGACAUCUGUCACCCCAUUGAUCGCCAGGGUUGAUUCGGCUCUAGACCGACGCUAGGCGGGUGUCCCCUUCCUCCCUCACCGCUCCAUG
Take B2: the binding result (label: 32P internal) is given as “no binding”.
